Laboratory results published in the supplement of paper PMC9112550, “Optimization of the antimicrobial peptide Bac7 by deep mutational scanning” (BMC Biology, 2022).

Test system: Escherichia coli TOP10
Assay: shrunken log2 fold change of peptide-encoding DNA abundance (4.5 h post-induction vs induction); higher = less antimicrobial activity (less host growth inhibition)
Details: time post-induction: 4.5 h; library: site-saturation at positions 5, 18, 19, 20
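Further: peptides expressed intracellularly from a pBAD plasmid library in pooled LB shake-flask culture, induced with 0.3% L-arabinose, DNA abundance read by NGS, three biological replicates, DESeq2 with apeglm shrinkage.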

RRIRIRPPRLPRPRPRPPGAPRP
shrunken log2 fold change: 0.431

RRIRSRPPRLPRPRPRPTMHPRP
shrunken log2 fold change: 0.0312

RRIRGRPPRLPRPRPRPDNRPRP
shrunken log2 fold change: -0.0893

RRIRERPPRLPRPRPRPITPPRP
shrunken log2 fold change: -0.628

RRIRHRPPRLPRPRPRPEWVPRP
shrunken log2 fold change: -0.086

RRIRGRPPRLPRPRPRPHPQPRP
shrunken log2 fold change: 0.546

RRIRGRPPRLPRPRPRPVNVPRP
shrunken log2 fold change: 0.0488

RRIRLRPPRLPRPRPRPRAPPRP
shrunken log2 fold change: 0.71

RRIRVRPPRLPRPRPRPMTEPRP
shrunken log2 fold change: 0.0198

RRIRFRPPRLPRPRPRPHKCPRP
shrunken log2 fold change: -0.106

RRIRNRPPRLPRPRPRPHYNPRP
shrunken log2 fold change: -0.619

RRIRCRPPRLPRPRPRPNKSPRP
shrunken log2 fold change: -0.584

RRIRNRPPRLPRPRPRPRQWPRP
shrunken log2 fold change: 0.299

RRIRGRPPRLPRPRPRPEDSPRP
shrunken log2 fold change: 1.39

RRIRHRPPRLPRPRPRPHLVPRP
shrunken log2 fold change: -0.18

RRIRMRPPRLPRPRPRPDRTPRP
shrunken log2 fold change: 0.52

RRIRARPPRLPRPRPRPWLLPRP
shrunken log2 fold change: 0.156

RRIRKRPPRLPRPRPRPLISPRP
shrunken log2 fold change: 0.0452

RRIRCRPPRLPRPRPRPEMQPRP
shrunken log2 fold change: 0.526

RRIRHRPPRLPRPRPRPFFEPRP
shrunken log2 fold change: -0.0877

RRIRPRPPRLPRPRPRPFFDPRP
shrunken log2 fold change: -0.12

RRIRTRPPRLPRPRPRPKLMPRP
shrunken log2 fold change: -0.102

RRIRSRPPRLPRPRPRPHRTPRP
shrunken log2 fold change: -0.0768

RRIRLRPPRLPRPRPRPPPLPRP
shrunken log2 fold change: 1.12

RRIRQRPPRLPRPRPRPMITPRP
shrunken log2 fold change: -0.166

RRIRARPPRLPRPRPRPSACPRP
shrunken log2 fold change: 0.359

RRIRQRPPRLPRPRPRPVTLPRP
shrunken log2 fold change: -0.153

RRIRHRPPRLPRPRPRPGQRPRP
shrunken log2 fold change: 0.0218

RRIRYRPPRLPRPRPRPEPSPRP
shrunken log2 fold change: -0.0733

RRIRCRPPRLPRPRPRPDPIPRP
shrunken log2 fold change: -0.0573

RRIRVRPPRLPRPRPRPRPCPRP
shrunken log2 fold change: 0.322

RRIRLRPPRLPRPRPRPVQVPRP
shrunken log2 fold change: -0.113

RRIRHRPPRLPRPRPRPIDMPRP
shrunken log2 fold change: 0.0231

RRIRVRPPRLPRPRPRPCGRPRP
shrunken log2 fold change: 0.168

RRIRERPPRLPRPRPRPAPFPRP
shrunken log2 fold change: -0.244

RRIRLRPPRLPRPRPRPPNTPRP
shrunken log2 fold change: 0.00316

RRIRRRPPRLPRPRPRPMQNPRP
shrunken log2 fold change: 0.362

RRIRCRPPRLPRPRPRPKIKPRP
shrunken log2 fold change: -0.287

RRIRDRPPRLPRPRPRPFDWPRP
shrunken log2 fold change: 0.374

RRIRHRPPRLPRPRPRPDQHPRP
shrunken log2 fold change: -0.00237

RRIRERPPRLPRPRPRPCICPRP
shrunken log2 fold change: -0.0733

RRIRMRPPRLPRPRPRPSWLPRP
shrunken log2 fold change: 0.0725

RRIRSRPPRLPRPRPRPESMPRP
shrunken log2 fold change: 0.151

RRIRFRPPRLPRPRPRPMQCPRP
shrunken log2 fold change: 0.188

RRIRCRPPRLPRPRPRPFIWPRP
shrunken log2 fold change: -0.717

RRIRIRPPRLPRPRPRPAMHPRP
shrunken log2 fold change: -0.221

RRIRPRPPRLPRPRPRPEANPRP
shrunken log2 fold change: 0.473

RRIRFRPPRLPRPRPRPTRHPRP
shrunken log2 fold change: 0.519

RRIRWRPPRLPRPRPRPIQCPRP
shrunken log2 fold change: -0.0122

RRIRSRPPRLPRPRPRPKTPPRP
shrunken log2 fold change: 0.405

RRIRVRPPRLPRPRPRPIRWPRP
shrunken log2 fold change: -0.0339

RRIRDRPPRLPRPRPRPAHDPRP
shrunken log2 fold change: 0.414

RRIRFRPPRLPRPRPRPKGAPRP
shrunken log2 fold change: -0.0295

RRIRMRPPRLPRPRPRPYCEPRP
shrunken log2 fold change: -0.34

RRIRLRPPRLPRPRPRPNVSPRP
shrunken log2 fold change: -0.0595

RRIRQRPPRLPRPRPRPFDTPRP
shrunken log2 fold change: -0.144

RRIRNRPPRLPRPRPRPHVRPRP
shrunken log2 fold change: -0.12

RRIRNRPPRLPRPRPRPHLNPRP
shrunken log2 fold change: -0.599

RRIRHRPPRLPRPRPRPHNVPRP
shrunken log2 fold change: -0.195

RRIRMRPPRLPRPRPRPGFAPRP
shrunken log2 fold change: 1.35

RRIRKRPPRLPRPRPRPGTIPRP
shrunken log2 fold change: -0.0588

RRIRTRPPRLPRPRPRPMHFPRP
shrunken log2 fold change: -0.0728

RRIRMRPPRLPRPRPRPLCQPRP
shrunken log2 fold change: 0.0549

RRIRWRPPRLPRPRPRPGNKPRP
shrunken log2 fold change: -0.0586

RRIRFRPPRLPRPRPRPKCYPRP
shrunken log2 fold change: -0.233

RRIRKRPPRLPRPRPRPSAWPRP
shrunken log2 fold change: 0.534

RRIRYRPPRLPRPRPRPQYHPRP
shrunken log2 fold change: -0.873

RRIRIRPPRLPRPRPRPTLPPRP
shrunken log2 fold change: 0.0197

RRIRCRPPRLPRPRPRPELWPRP
shrunken log2 fold change: 0.732

RRIRIRPPRLPRPRPRPDIHPRP
shrunken log2 fold change: -0.587

RRIRPRPPRLPRPRPRPMDYPRP
shrunken log2 fold change: -0.165

RRIRHRPPRLPRPRPRPEWHPRP
shrunken log2 fold change: 0.0223

RRIRSRPPRLPRPRPRPTMWPRP
shrunken log2 fold change: 0.214

RRIRHRPPRLPRPRPRPMPCPRP
shrunken log2 fold change: -0.105

RRIRNRPPRLPRPRPRPDDLPRP
shrunken log2 fold change: -0.000687

RRIRHRPPRLPRPRPRPHVNPRP
shrunken log2 fold change: -0.183

RRIRCRPPRLPRPRPRPQLIPRP
shrunken log2 fold change: 0.229

RRIRVRPPRLPRPRPRPWENPRP
shrunken log2 fold change: -0.0208

RRIRKRPPRLPRPRPRPLWSPRP
shrunken log2 fold change: -0.014

RRIRYRPPRLPRPRPRPPCVPRP
shrunken log2 fold change: 0.0199

RRIRNRPPRLPRPRPRPDMFPRP
shrunken log2 fold change: -0.00166

RRIRFRPPRLPRPRPRPSSRPRP
shrunken log2 fold change: -0.273

RRIRYRPPRLPRPRPRPMLFPRP
shrunken log2 fold change: -0.347

RRIRSRPPRLPRPRPRPVQNPRP
shrunken log2 fold change: 0.0832

RRIRQRPPRLPRPRPRPYQHPRP
shrunken log2 fold change: -0.515

RRIRGRPPRLPRPRPRPNMCPRP
shrunken log2 fold change: -0.0942

RRIRYRPPRLPRPRPRPPSQPRP
shrunken log2 fold change: 0.0859

RRIRARPPRLPRPRPRPSKWPRP
shrunken log2 fold change: -0.101

RRIRLRPPRLPRPRPRPVRSPRP
shrunken log2 fold change: 0.53

RRIRARPPRLPRPRPRPNSFPRP
shrunken log2 fold change: -0.232

RRIRQRPPRLPRPRPRPPIKPRP
shrunken log2 fold change: -0.0648

RRIRGRPPRLPRPRPRPDIEPRP
shrunken log2 fold change: 0.735

RRIRHRPPRLPRPRPRPHHRPRP
shrunken log2 fold change: -0.257

RRIRQRPPRLPRPRPRPWGIPRP
shrunken log2 fold change: 0.0274

RRIRWRPPRLPRPRPRPQYPPRP
shrunken log2 fold change: -0.139

RRIRTRPPRLPRPRPRPQICPRP
shrunken log2 fold change: 0.13

RRIRARPPRLPRPRPRPRKTPRP
shrunken log2 fold change: 0.29

RRIRPRPPRLPRPRPRPNKIPRP
shrunken log2 fold change: -0.203

RRIRHRPPRLPRPRPRPQGWPRP
shrunken log2 fold change: 0.0705

RRIRMRPPRLPRPRPRPWCVPRP
shrunken log2 fold change: 0.0904

RRIRYRPPRLPRPRPRPLLLPRP
shrunken log2 fold change: -0.586

RRIRRRPPRLPRPRPRPLTDPRP
shrunken log2 fold change: 0.223

RRIRVRPPRLPRPRPRPWSWPRP
shrunken log2 fold change: 0.15

RRIRARPPRLPRPRPRPPQRPRP
shrunken log2 fold change: 1.16

RRIRTRPPRLPRPRPRPEMGPRP
shrunken log2 fold change: -0.0368

RRIRRRPPRLPRPRPRPLCGPRP
shrunken log2 fold change: 0.0348

RRIRHRPPRLPRPRPRPQGRPRP
shrunken log2 fold change: 0.027

RRIRHRPPRLPRPRPRPRNHPRP
shrunken log2 fold change: -0.481

RRIRWRPPRLPRPRPRPMHKPRP
shrunken log2 fold change: 0.219
